Among the data in publication PMC3308923 (2012) are Kd values, retold here.

A word on the Kd: it is the equilibrium constant for the complex coming apart. A lower Kd goes with tighter binding.

The assay addresses H6MA-CA, His-tagged matrix-capsid (MAp17-CAp24) domains of the HIV-1 Gag precursor (HIV-1 (pNL4-3)). Nature of the assay: ITC. (ITC needs no label: the signal is the heat of the interaction.)

B1: Ank^GAG1D4 (designed binder)
chain: DLGKKLLEAARAGQDDEVRLLLEHGADVNARDSIGSTPLHLAAYYGHLEIVRLLLEHGADVNARDSTGTTPLHYAARLGHLEIVRLLLEHGADVNARDAMGWTPLHLAAKKGHLEIVRLLLKHGADVNANDHFGKTAFDISIDNGNEDLAEILQSFNHHHHHH
B1 yielded a Kd of 1090 nM.
